The assay concerns the target T1, NorC (wild type) (Staphylococcus aureus subsp. aureus COL …).
T1 chain: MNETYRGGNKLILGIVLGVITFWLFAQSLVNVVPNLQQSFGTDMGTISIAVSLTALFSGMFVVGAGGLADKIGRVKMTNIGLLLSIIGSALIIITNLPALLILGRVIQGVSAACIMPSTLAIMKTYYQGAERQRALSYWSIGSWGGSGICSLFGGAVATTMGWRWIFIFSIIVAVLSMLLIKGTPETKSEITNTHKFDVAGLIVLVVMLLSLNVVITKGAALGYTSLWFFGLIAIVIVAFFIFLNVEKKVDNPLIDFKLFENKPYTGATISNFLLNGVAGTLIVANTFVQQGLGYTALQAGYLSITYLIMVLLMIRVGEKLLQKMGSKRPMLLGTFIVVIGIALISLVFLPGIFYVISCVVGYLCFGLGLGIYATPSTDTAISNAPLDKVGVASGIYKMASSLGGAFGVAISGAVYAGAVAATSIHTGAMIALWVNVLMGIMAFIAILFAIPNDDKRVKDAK
Description: ITC. In general terms: ITC needs no label: the signal is the heat of the interaction.

B1: single-domain Indian camelid antibody (ICab), Zn2+-bound (VHH)
VHH: QVQLEESGGGSVQAGGSLRLSCAASGYMYSTYSTYCMGWFRQAPGKEREGVAFIKRGDHSTYYTDSVKGRFTISQDSAKNTVSLQMNNLKPEDTAIYYCAADFAHSFLLSVHSGAGQYSYWGQGTQVTVSS
Regarding B1, binding was characterised by a dissociation constant (Kd) of 38 ± 5 nM.

The values above are taken from paper doi:10.1101/2020.10.21.349639 (bioRxiv, 2020).
